Changes are numbered by the printed parent chain.
How the values were obtained:
[1] = biological target: T1, Japanese eel (Anguilla japonica) UnaG, wild type, SEQ ID NO: 1 (Anguilla japonica, UniProt P0DM59); experiment: Dissociation constant by bilirubin titration of apo UnaG (fluorescence at 527 nm, curve fitting); type: binding; conditions: wild-type apo UnaG 5 nM, titrated with bilirubin to 10 nM
T1 construct: GST (N, cleaved yes); made in house; host or cells: Escherichia coli BL21 (DE3)
Excerpt: The capacity of binding to bilirubin can be evaluated through calculation of dissociation constant (Kd) by curve-fitting of correlation between the amount of bilirubin and the fluorescence intensity of UnaG protein. In one instance, “reduced capacity of binding to bilirubin compared to UnaG” means that the dissociation constant, Kd, is larger than that of UnaG.
The dissociation constant can be calculated by a known method, for example, by the following computation expression: Y=[Kd+Bt+Pt−{(Kd+Bt+Pt}^1/2]/(2×Pt) where Y represents the degree of binding of bilirubin (fluorescence intensity); Kd represents the dissociation constant; Bt represents the concentration of bilirubin; and Pt represents the concentration (5 nM) of apo UnaG protein.
(§1) An apo UnaG protein solution having an apo UnaG protein concentration of 5 nM was titrated with bilirubin to give a final concentration of bilirubin of 10 nM, and the fluorescence spectrum was measured with a fluorescence spectrophotometer.
Apo A12ES80N mutant protein was titrated with bilirubin, and the fluorescence intensity was measured with a spectrophotofluorometer F-2500 (Hitachi High-Technologies Corporation). The results were plotted. Data analysis and fitting with graph plotting software Origin (OriginLab Corporation) were performed to determine the dissociation constant (Kd). […]

[2] = biological target: T2, Japanese eel (Anguilla japonica) UnaG variant A12ES80N (A12E, S80N), SEQ ID NO: 29 (Anguilla japonica, UniProt P0DM59, A12E/S80N); experiment: Dissociation constant by bilirubin titration of apo A12ES80N mutant (fluorescence, curve fitting); type: binding
T2 construct: made in house; host or cells: Escherichia coli JM109 (DE3)
T2 sequence (P0DM59 whole entry A12E/S80N): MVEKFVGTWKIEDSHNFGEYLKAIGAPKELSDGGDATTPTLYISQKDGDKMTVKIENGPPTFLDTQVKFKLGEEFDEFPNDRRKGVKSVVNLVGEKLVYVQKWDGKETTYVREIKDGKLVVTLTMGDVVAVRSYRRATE
Method: as §1
A DNA fragment of A12ES80N mutant was ligated into BamHI and EcoRI restriction enzyme sites of pRSETB-FLAG vector, which was Escherichia coli expression vector pcRSETB including a FLAG tag sequence (SEQ ID NO: 26) at the KpnI/BamHI restriction enzyme sites, and was transformed into Escherichia coli strain JM109 (DE3) for subcloning. […]
The bacterial cells were suspended in 5 mL of PBS, and 50 μL of lysozyme (4 mg/mL) was added thereto. […] Subsequently, His-FLAG-UnaG mutant protein was eluted by adding each 500 μL of PBS containing 300 mM imidazole to the carrier, and the elution fraction was detected by a bradford method. […] The concentration of the purified His-FLAG-UnaG mutant protein was determined by the following computation expression based on the absorbance A280. […]
Apo A12ES80N mutant protein was titrated with bilirubin, and the fluorescence intensity was measured with a spectrophotofluorometer F-2500 (Hitachi High-Technologies Corporation). […]

[3] = biological target: T1, Japanese eel (Anguilla japonica) UnaG, wild type, SEQ ID NO: 1; experiment: Fluorescence of apo UnaG reconstructed with bilirubin or bilirubin analogs (ligand specificity); type: biochemical; conditions: apo UnaG 0.5 μM; ligand 0.125-2.0 μM; room temperature 30 min; excitation 497 nm, fluorescence 527 nm
Method: FIG. 5 is a graph showing specificity of UnaG protein in Example of the present invention to unconjugated bilirubin. Apo UnaG (0.5 μM) was mixed with a ligand: bilirubin (unconjugated) at various concentrations or a bilirubin analog, biliverdin, urobilin, or ditaurobilirubin, at various concentrations, and the fluorescence intensity at each concentration was measured. The vertical axis indicates fluorescence intensity, and the horizontal axis indicates concentration (μM) of each ligand.
Bilirubin or a bilirubin analog, biliverdin (Toronto Research Chemicals), urobilin (MP Biomedicals), or ditaurobilirubin (Frontier Scientific), was diluted with PBS such that the final concentration was 0.125 μM, 0.25 μM, 0.5 μM, 1.0 μM, or 2.0 μM and was mixed with 0.5 μM apo UnaG protein. The mixture was left to stand at room temperature for 30 min. Subsequently, 200 μL of the mixture was added to each well of a 96 well microplate (Greiner Bio-One) and was subjected to measurement of the fluorescence intensity at a wavelength of 527 nm with excitation light having a wavelength of 497 nm using EnSpire multi-mode plate reader (PerkinElmer Co., Ltd.).

[4] = Measurement of fluorescence spectrum, absorption spectrum, quantum yield and fluorescence lifetime; type: physicochemical
Method: In order to analyze the fluorescent properties of UnaG protein, the fluorescence spectrum, absorption spectrum, and quantum yield were measured. The excitation spectrum and the fluorescence spectrum were measured with a spectrophotofluorometer, RF-5300PC (Shimadzu Corporation), at an excitation wavelength of 475 nm and a fluorescence wavelength of 550 nm. The absorption spectrum was measured with a spectrophotometer, U-2900 (Hitachi High-Technologies Corporation). The quantum yield was measured with an absolute quantum yield measurement system, Quantaurus-QY (Hamamatsu Photonics K.K.) at excitation wavelengths of 470 nm and 480 nm. A known fluorescent protein, EGFP, was similarly measured, and the values were compared to those of UnaG protein.
In order to analyze the fluorescent properties of R82EK84E mutant, the fluorescence spectrum, absorption spectrum, and quantum yield were measured. The measurement was performed by the same method as that described in the above-described paragraph 3. The fluorescence lifetime was measured with a small-sized fluorescence lifetime measurement system, Quantaurus-Tau (Hamamatsu Photonics K.K.) and was compared to that of wild-type UnaG protein.
The fluorescence spectrum, absorption spectrum, and quantum yield (excitation wavelength: 470 nm) were measured for analyzing the fluorescent properties of holo A12ES80N mutant protein. The measurement was performed by the same method as that described in paragraph 3, above. The fluorescent properties were compared to those of wild-type UnaG protein.

[5] = Evaluation of aggregability of protein by dynamic light scattering particle diameter; type: physicochemical
Method: Protein solutions (each 20 μL) of wild-type UnaG protein (10 mg/mL) and R82EK84E mutated UnaG protein (8.5 mg/mL) were each supplied to Microtrac particle size analyzer MT3000II (Nikkiso Co., Ltd.), and the particle diameters were measured by a dynamic light scattering. The aggregability was evaluated by plotting frequency against particle diameter.

[6] = Table 3, wild-type vs R82EK84E mutant
[7] = Table 3, wild-type vs R82EK84E mutant, holo form reconstructed with bilirubin
[8] = Table 4, wild-type vs holo A12ES80N mutant

T1 sequence (P0DM59 whole entry): as the sequence (P0DM59 whole entry A12E/S80N) above, with E12A, N80S counted along it

## C=CC1=C(C)/C(=C/c2[nH]c(Cc3[nH]c(/C=C4\NC(=O)C(C)=C4C=C)c(C)c3CCC(=O)O)c(CCC(=O)O)c2C)NC1=O [bilirubin]
[1]
  Kd: 0.098 nM
[2]
  Kd: 1.9 nM
[3]
  fluorescence emission of UnaG on addition of ligand: the fluorescence of UnaG is specific to bilirubin

B1: R82EK84E mutant: UnaG with 82nd amino acid R and 84th amino acid K substituted by E; SEQ ID NO: 5 (protein, listed as Anguilla japonica)
chain: MVEKFVGTWKIADSHNFGEYLKAIGAPKELSDGGDATTPTLYISQKDGDKMTVKIENGPPTFLDTQVKFKLGEEFDEFPSDEREGVKSVVNLVGEKLVYVQKWDGKETTYVREIKDGKLVVTLTMGDVVAVRSYRRATE
[4]; [6]
  Molar extinction coefficient: 50,870 M^−1 cm^−1
  Quantum yield: 61%
[4]; [7]
  Maximum excitation wavelength: 498 nm
  Maximum fluorescence wavelength: 527 nm
[4]; Table 3, wild-type vs R82EK84E mutant, Quantaurus-Tau
  Fluorescence lifetime (τ1/ns): 2.2 ns
[5]
  dispersibility / aggregation compared to the wild-type: improved dispersibility
[5]; wild-type 10 mg/mL, R82EK84E mutant 8.5 mg/mL
  particle diameter distribution (peaks): single peak

B2: A12ES80N mutant: UnaG variant with substitution of A at 12th position to E and S at 80th position to N; SEQ ID NO: 29 (protein, listed as Anguilla japonica)
chain: B1 chain with A12E, S80N, E82R, E84K
[4]; [8]
  Maximum excitation wavelength: 499 nm
  Maximum fluorescence wavelength: 527 nm
  Molar extinction coefficient: 56,210 M^−1 cm^−1
[4]; Table 4, excitation wavelength 470 nm
  Quantum yield: 46.8%

Reference: US9957308B2, “Method for detecting bilirubin using a fluorescent protein” (RIKEN, priority 2013, dated 2018)
